{
  "source": "patent US20130244255A1",
  "about": "(published 2013)",
  "binders": {"B1": {"name": "CR011 mAb 1.15.1 (IgG2) (antibody)", "heavy": "QVQLQESGPGLVKPSQTLSLTCTVSGGSISSFNYYWSWIRHHPGKGLEWIGYIYYSGSTYSNPSLKSRVTISVDTSKNQFSLTLSSVTAADTAVYYCARGYNWNYFDYWGQGTLVTVSSASTKGPSVFPLAPCSRSTSESTAALGCLVKDYFPEPVTVSWNSGALTSGVHTFPAVLQSSGLYSLSSVVTVPSSNFGTQTYTCNVDHKPSNTKVDKTVERKCCVECPPCPAPPVAGPSVFLFPPKPKDTLMISRTPEVTCVVVDVSHEDPEVQFNWYVDGVEVHNAKTKPREEQFNSTFRVVSVLTVVHQDWLNGKEYKCKVSNKGLPAPIEKTISKTKGQPREPQVYTLPPSREEMTKNQVSLTCLVKGFYPSDIAVEWESNGQPENNYKTTPPMLDSDGSFFLYSKLTVDKSRWQQGNVFSCSVMHEALHNHYTQKSLSLSPGK", "VL": "not shown", "notes": "also called CR011.1.15.1; CR011 IgG2"}},
  "key": {"[1]": {"molecular_target": "T1, GPNMB (CG56972) as expressed by human cell lines (human, UniProt Q14956 23-492)", "T1 sequence": "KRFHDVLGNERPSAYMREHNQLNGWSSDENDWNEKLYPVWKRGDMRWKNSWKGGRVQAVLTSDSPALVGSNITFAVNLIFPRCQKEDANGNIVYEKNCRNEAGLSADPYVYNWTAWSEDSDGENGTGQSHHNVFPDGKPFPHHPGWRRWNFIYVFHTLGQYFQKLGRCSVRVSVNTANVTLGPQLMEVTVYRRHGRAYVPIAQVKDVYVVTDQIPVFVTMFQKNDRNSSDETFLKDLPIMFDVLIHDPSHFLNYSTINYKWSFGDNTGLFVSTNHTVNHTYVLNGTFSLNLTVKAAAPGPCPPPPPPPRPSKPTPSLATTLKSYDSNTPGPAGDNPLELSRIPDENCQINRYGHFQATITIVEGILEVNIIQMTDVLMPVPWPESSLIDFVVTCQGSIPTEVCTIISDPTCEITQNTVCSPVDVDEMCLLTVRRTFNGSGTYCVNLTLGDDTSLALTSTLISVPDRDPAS", "assay": "cell-based or functional assay"}, "[2]": {"molecular_target": "T1, GPNMB (CG56972) as expressed by human …", "assay": "FACS on A2058 cells"}, "[3]": {"molecular_target": "T1, GPNMB (CG56972) as expressed by human …", "assay": "FACS on HT144 cells"}, "[4]": {"molecular_target": "T1, GPNMB (CG56972) as expressed by human …", "assay": "FACS on SK-Mel 2 cells"}, "[5]": {"molecular_target": "T1, GPNMB (CG56972) as expressed by human …", "assay": "FACS on SK-Mel 5 cells"}, "[6]": {"molecular_target": "T1, GPNMB (CG56972) as expressed by human …", "assay": "FACS on T98G cells, CR011 10 ug/mL", "protocol": "(§1) Quantitative analysis of CG56972 expression on the surface of cell lines was determined by flow cytometry (FACS). […] Cells were fixed in 1% paraformaldehyde/PBS and examined on a Becton Dickinson FACSCalibur flow cytometer. Data analysis was performed with Becton Dickinson Cell Quest software version 3.3 and the geometric mean fluorescence intensity ratio (GMR) was determined for each cell type."}, "[7]": {"molecular_target": "T1, GPNMB (CG56972) as expressed by human …", "assay": "FACS on K562 cells, antibody 1 ug/mL", "protocol": "(§2) Lymphoma or leukemia derived cells were washed twice with ice-cold FACS buffer and resuspended at 1 million cells per assay tube. […] Cells were then washed 2-3 times and resuspended in 1 mL of ice-cold FACS buffer. R-PE-conjugated goat anti-human antibody at 1:100 dilution was added and cells were incubated on ice for 30 min. Cells were washed 3 times with 1 mL of ice-cold FACS buffer, fixed with 0.5-1 mL of 1% formaldehyde in PBS and analyzed by Flow Cytometry."}, "[8]": {"molecular_target": "T1, GPNMB (CG56972) as expressed by human …", "assay": "FACS on SK-N-SH cells, CR011 10 ug/mL", "protocol": "as §1"}, "[9]": {"molecular_target": "T1, GPNMB (CG56972) as expressed by human …", "assay": "FACS on SU-DHL-1 cells, antibody 1 ug/mL", "protocol": "as §2"}, "[10]": {"molecular_target": "T1, GPNMB (CG56972) as expressed by human …", "assay": "FACS on Karpas 299 cells, antibody 1 ug/mL", "protocol": "as §2"}},
  "data": [
    {"binder": "B1", "values": [
      {"measurement": "killing of UACC-62 cells with saporin-conjugated secondary antibody (colony count)", "setting": "[1]", "result": "> 70", "unit": "%"},
      {"measurement": "Geo Mean Ratio (relative to isotype)", "setting": "[2]", "result": 4.1, "unit": "ratio"},
      {"measurement": "Geo Mean Ratio (relative to isotype)", "setting": "[3]", "result": 7.4, "unit": "ratio"},
      {"measurement": "Geo Mean Ratio (relative to isotype)", "setting": "[4]", "result": 16.5, "unit": "ratio"},
      {"measurement": "Geo Mean Ratio (relative to isotype)", "setting": "[5]", "result": 5.7, "unit": "ratio"},
      {"measurement": "CR011 Fold Shift (GMR)", "setting": "[6]", "result": 1.3, "unit": "fold"},
      {"measurement": "Geo Mean Ratio", "setting": "[7]", "result": 2.8, "unit": "ratio"},
      {"measurement": "CR011 Fold Shift (GMR)", "setting": "[8]", "result": 2, "unit": "fold"},
      {"measurement": "Geo Mean Ratio", "setting": "[9]", "result": 4.8, "unit": "ratio"},
      {"measurement": "Geo Mean Ratio", "setting": "[10]", "result": 10.7, "unit": "ratio"}
    ]}
  ]
}
